# Measurements as given in patent US20250282887A1 (Amgen, published 2025).
# Positions count from the first letter of the chain named.
# T1: Human MAGEB2 (Melanoma-associated antigen B2) (human, UniProt O15479 1-319)
# T1 construct: Intracellular antigen detected by IHC in FFPE material: CHO cells transfected with human MAGEB2 (mCherry vector with Myc/DDK tags, or ORF without tags)
# T1 sequence: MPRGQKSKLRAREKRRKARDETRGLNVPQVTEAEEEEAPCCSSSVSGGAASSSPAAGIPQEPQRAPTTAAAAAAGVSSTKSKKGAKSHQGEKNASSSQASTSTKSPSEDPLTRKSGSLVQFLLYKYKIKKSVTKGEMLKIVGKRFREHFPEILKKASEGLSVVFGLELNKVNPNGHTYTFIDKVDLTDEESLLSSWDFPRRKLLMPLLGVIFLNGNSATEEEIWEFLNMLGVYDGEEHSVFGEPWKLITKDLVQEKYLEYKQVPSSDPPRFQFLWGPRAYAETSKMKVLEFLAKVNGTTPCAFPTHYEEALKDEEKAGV
# B1: 1C3 (antibody, V domains shown)
# VH: QSLEESGGGLVQPEGSLTLTCTAFGVTLTNYYICWVRQAPGKGLEWVGCIDNANGRTYYASWAKGRFTISKTSSTTGTLQMTSLTAADTATYFCARSLATPLWGPGTLVTVSS
# VL: DIVMTQTPSSVEAAVGGTVTIKCQASQNISSYLAWYQQKPGQPPKLLIYRASTLASGVPSRFKGSGSGTQFTLTISDLECADAATYYCQSYDDSRSSNFFYAFGGGTEVVVKG
# notes: also called MAGE-B2 (IC3); anti-MAGEB2 antibody 1C3
# B2: 4G17 (antibody, IgG1, V domains shown)
# VH: B1 VH with F24S, T29S, V47I, A53V
# VL: DIVMTQTPASVEAAVGGTVTIKCQASQNIDSYLAWYQQKPGQPPKLLIYRASTLASGVPSRFKGSGSGTEFTLTISDLECADAATYYCQSYDDSRSSSFFYGFGGGTEVVVK
# notes: Rabbit monoclonal IgG1; Tested as supernatant and as small batch purified antibody; also called MAGE-B2 (4G17); anti-MAGEB2 antibody 4G17
# B3: 1J15 (antibody, IgG1, V domains shown)
# VH: B1 VH with V26F, T29N, V47I, G48A, G77V, A99S
# VL: B2 VL with N28S, D30S, A34S, K63R, E70Q, R95S, S96D, S97N, S98N, K112R
# notes: Rabbit monoclonal IgG1; Tested as supernatant and as small batch purified antibody; also called MAGE-B2 (IJ15); anti-MAGEB2 antibody 1J15
# B4: 1I14 (antibody, V domains shown)
# VH: QSVEESGGRLVTPGTPLTLTCTISGFSLSSYAMSWVRQAPGKGLEWIGSIGGGGSAVYASWAKGRFTISKTSTTVDLRITSPTTEDTAMYFCGRGFYSIDLWGPGTLVTVSS
# VL: DVVMTQTPASVEATVGGTVTIKCQSSQSVYDNNALAWYQQNAGQRPRLLIYGASTLASGVPSRFSASGSGTEFTLTISDLECADAATYYCQCTYYVSSYQNDFGGGTEVVVKG
# notes: also called MAGE-B2 (1i14)
# Biological target: T1, Human MAGEB2 (Melanoma-associated …)
# Experiment: IHC on FFPE U20S cells (endogenous MAGEB2)
# Experimental: (§1) FFPE samples were sectioned at 4 μm and mounted on positive charged glass slides. After mounting, paraffin sections were air-dried at room temperature. FFPE TMA samples were received as freshly sectioned and mounted on glass slides. The fully automated IHC assay was performed on a Discovery Ultra Stainer (Ventana Medical Systems, Tucson, AZ) using Ventana Anti-Rabbit HQ (cat #760-4815), Ventana Anti-HQ HRP (cat #760-4820), and Ventana Antibody Diluent with Casein (cat #760-219) (Ventana Medical Systems, Tucson, AZ). The slides were baked on the Discovery Ultra Stainer at 60° C. for 8 minutes, de-paraffinized with Ventana Discovery wash (cat #950-510) for 3 cycles (8 minutes each) at 69° C., and underwent cell conditioning (target retrieval) at 95° C. for 16 minutes (for cell arrays) or 32 minutes (tissues or TMAs) in CC1 buffer (cat #950-500). Following this, slides were incubated with Background Sniper (cat #BS966M, Biocare Medical, Pacheco, CA) in a Ventana Option Prep kit (cat #771-751) for 28 minutes, incubated with CM inhibitor (a part of the Ventana DAB kit cat #760-159) for 12 minutes, and incubated for 1 h at RT with MAGE-B2 antibody diluted with Ventana diluent with Casein in a Ventana Prep kit (cat #770-001) (working concentration at 0.1 μg/ml for cell pellet, or 1-5 ug/ml for tissues) or with a matched concentration of isotype control Rabbit IgG1 antibody. Following this, slides were incubated with the Ventana Anti-Rabbit HQ (cat #760-4815) for 28 minutes at RT, Ventana Anti-HQ HRP (cat #760-4820) for 28 minutes at RT, and signals detected with Ventana DAB chromogen kit (cat #760-159) for 5 minutes at RT. Slides were counterstained with Ventana Hematoxylin II (cat #5266726001) for 8 minutes and Ventana Bluing reagent (cat #526676900) for 4 minutes. Slides were coverslipped and digitized using an Aperio AT2 scanner (Leica Biosystems Inc, Buffalo Grove, IL).
IHC % Frequency [%],IHC Intensity,Binder
60,2,B1
60,2,B2
50,1,B3
70,2,B4

# Biological target: T1, Human MAGEB2 (Melanoma-associated …)
# Experiment: IHC on FFPE CFPAC-1 cells (endogenous MAGEB2)
# Experimental: as §1
row,IHC % Frequency [%],Binder
1,0,B1
2,0,B2
3,0,B3
4,0,B4

# Biological target: T1, Human MAGEB2 (Melanoma-associated …)
# Experiment: IHC on FFPE VMRC-LCD cells (endogenous MAGEB2)
# Experimental: as §1
IHC % Frequency [%],IHC Intensity,Binder
0,0,B1
0,0,B2
0,0,B3
0,0,B4

# Biological target: T1, Human MAGEB2 (Melanoma-associated …)
# Experiment: IHC on FFPE SCaBER cells (endogenous MAGEB2)
# Experimental: as §1
IHC % Frequency [%],IHC Intensity,Binder
70,2,B1
70,2,B2
50,2,B3
0,0,B4

# Biological target: T1, Human MAGEB2 (Melanoma-associated …)
# Experiment: IHC on FFPE NCI-H82 cells (endogenous MAGEB2)
# Experimental: as §1
IHC % Frequency [%],IHC Intensity,Binder
0,1,B1
0,0,B2
0,0,B3
0,0,B4
